± gives the uncertainty stated by the source.
B1: Chromodomain-helicase-DNA-binding protein 7, residues 2564 to 2605; numbered along this chain, Q9P2D1 (parent)
chain: DPDTRIPVINLEDGTRLVGEDAPKNKDLVEWLKLHPTYTVDM

Variants of: B1
Experiment: abundance fitness (aPCA) (normalised: wild type 0, dead -1); higher = more abundant; growth selection in yeast, the domain comes from the species named
Details: Homo sapiens
DPDTRIPVINLEDGTRLVGEDAPKNKDLVEWLKLHKTYTVDM gave an abundance fitness of -0.321 ± 0.39.
Work on DPDTRIPVINLEDGTRLVGEDAPKNKDLVEWLKLHSTYTVDM yielded an abundance fitness of -0.457 ± 0.066.
Work on DPDTRIPVINLEDGTRLVGEDAPKNKDLVEWLKLHHTYTVDM yielded an abundance fitness of -0.492 ± 0.13.
DPDTRIPVINLEDGTRLVGEDAPKNKDLVEWLKLHQTYTVDM showed an abundance fitness of -0.461 ± 0.13.
In the case of DPDTRIPVINLEDGTRLVGEDAPKNKDLVEWLKLHGTYTVDM, the abundance fitness is reported as -0.484 ± 0.057.
For DPDTRIPVINLEDGTRLVGEDAPKNKDLVEWLKLHNTYTVDM, the abundance fitness was -0.36 ± 0.066.
Work on DPDTRIPVINLEDGTRLVGEDAPKNKDLVEWLKLHITYTVDM yielded an abundance fitness of -0.65 ± 0.078.
In the case of DPDTRIPVINLEDGTRLVGEDAPKNKDLVEWLKLHATYTVDM, the abundance fitness is reported as -0.561 ± 0.06.
For DPDTRIPVINLEDGTRLVGEDAPKNKDLVEWLKLHDTYTVDM, the abundance fitness was -0.685 ± 0.17.
With DPDTRIPVINLEDGTRLVGEDAPKNKDLVEWLKLHETYTVDM the abundance fitness was -0.406 ± 0.071.
For DPDTRIPVINLEDGTRLVGEDAPKNKDLVEWLKLHRTYTVDM, the abundance fitness was -0.401 ± 0.07.
DPDTRIPVINLEDGTRLVGEDAPKNKDLVEWLKLHWTYTVDM showed an abundance fitness of -0.731 ± 0.1.
For DPDTRIPVINLEDGTRLVGEDAPKNKDLVEWLKLHLTYTVDM, the abundance fitness was -0.81 ± 0.096.
DPDTRIPVINLEDGTRLVGEDAPKNKDLVEWLKLHCTYTVDM showed an abundance fitness of -0.78 ± 0.067.
DPDTRIPVINLEDGTRLVGEDAPKNKDLVEWLKLVPTYTVDM showed an abundance fitness of -0.751 ± 0.062.
For DPDTRIPVINLEDGTRLVGEDAPKNKDLVEWLKLWPTYTVDM, the abundance fitness was -0.764 ± 0.092.
DPDTRIPVINLEDGTRLVGEDAPKNKDLVEWLKLNPTYTVDM gave an abundance fitness of -0.064 ± 0.077.
In the case of DPDTRIPVINLEDGTRLVGEDAPKNKDLVEWLKLYPTYTVDM, the abundance fitness is reported as -0.593 ± 0.072.
In the case of DPDTRIPVINLEDGTRLVGEDAPKNKDLVEWLKLTPTYTVDM, the abundance fitness is reported as -0.616 ± 0.1.
With DPDTRIPVINLEDGTRLVGEDAPKNKDLVEWLKLMPTYTVDM the abundance fitness was -0.469 ± 0.088.
DPDTRIPVINLEDGTRLVGEDAPKNKDLVEWLKLQPTYTVDM showed an abundance fitness of -0.56 ± 0.099.
Work on DPDTRIPVINLEDGTRLVGEDAPKNKDLVEWLKLHPTYTVDF yielded an abundance fitness of -0.244 ± 0.087.
DPDTRIPVINLEDGTRLVGEDAPKNKDLVEWLKLHPTYTVDY gave an abundance fitness of -0.027 ± 0.069.
Work on DPDTRIPVINLEDGTRLVGEDAPKNKDLVEWLKLHPTYTVDR yielded an abundance fitness of -0.092 ± 0.3.
DPDTRIPVINLEDGTRLVGEDAPKNKDLVEWLKLHPTYTVDW showed an abundance fitness of -0.438 ± 0.26.
For DPDTRIPVINLEDGTRLVGEDAPKNKDLVEWLKLHPTYTVDK, the abundance fitness was -0.528 ± 0.36.
With DPDTRIPVINLEDGTRLVGEDAPKNKDLVEWLKLHPTYTVDA the abundance fitness was 0.132 ± 0.081.
Variant DPDTRIPVINLEDGTRLVGEDAPKNKDLVEWLKLHPTYTVDQ has an abundance fitness of 0.108 ± 0.12.
Work on DPDTRIPVINLEDGTRLVGEDAPKNKDLVEWLKLHPTYTVDP yielded an abundance fitness of -0.569 ± 0.3.
Variant DPDTRIPVINLEDGTRLVGEDAPKNKDLVEWLKLHPTYTVDI has an abundance fitness of -0.189 ± 0.097.
With DPDTRIPVINLEDGTRLVGEDAPKNKDLVEWLKLHPTYTVDS the abundance fitness was 0.111 ± 0.06.
For DPDTRIPVINLEDGTRLVGEDAPKNKDLVEWLKLHPTYTVDN, the abundance fitness was 0.025 ± 0.059.
Work on DPDTRIPVINLEDGTRLVGEDAPKNKDLVEWLKLHPTYTVDV yielded an abundance fitness of -0.065 ± 0.061.
Work on DPDTRIPVINLEDGTRLVGEDAPKNKDLVEWLKLHPTYTVDH yielded an abundance fitness of -0.04 ± 0.27.
In the case of DPDTRIPVINLEDGTRLVGEDAPKNKDLVEWLKLHPTYTVDT, the abundance fitness is reported as 0.142 ± 0.083.
DPDTRIPVINLEDGTRLVGEDAPKNKDLVEWLKLHPTYTVDL showed an abundance fitness of -0.172 ± 0.07.
With DPDTRIPVINLEDGTRLVGEDAPKNKDLVEWLKLHPTYTVDG the abundance fitness was -0.096 ± 0.15.
For DPDTRIPVINLEDGTRLVGEDAPKNKDLVEWLKLHPHYTVDM, the abundance fitness was -0.014 ± 0.077.
DPDTRIPVINLEDGTRLVGEDAPKNKDLVEWLKLHPWYTVDM gave an abundance fitness of -0.231 ± 0.11.
DPDTRIPVINLEDGTRLVGEDAPKNKDLVEWLKLHPQYTVDM showed an abundance fitness of -0.273 ± 0.14.
DPDTRIPVINLEDGTRLVGEDAPKNKDLVEWLKLHPPYTVDM showed an abundance fitness of -0.281 ± 0.1.
DPDTRIPVINLEDGTRLVGEDAPKNKDLVEWLKLHPAYTVDM showed an abundance fitness of -0.131 ± 0.068.
Work on DPDTRIPVINLEDGTRLVGEDAPKNKDLVEWLKLHPGYTVDM yielded an abundance fitness of 0.022 ± 0.054.
Work on DPDTRIPVINLEDGTRLVGEDAPKNKDLVEWLKLHPIYTVDM yielded an abundance fitness of -0.221 ± 0.1.
In the case of DPDTRIPVINLEDGTRLVGEDAPKNKDLVEWLKLHPEYTVDM, the abundance fitness is reported as -0.202 ± 0.089.
Variant DPDTRIPVINLEDGTRLVGEDAPKNKDLVEWLKLHPSYTVDM has an abundance fitness of -0.058 ± 0.065.
DPDTRIPVINLEDGTRLVGEDAPKNKDLVEWLKLHPFYTVDM showed an abundance fitness of -0.727 ± 0.077.
DPDTRIPVINLEDGTRLVGEDAPKNKDLVEWLKLHPDYTVDM showed an abundance fitness of -0.09 ± 0.06.
DPDTRIPVINLEDGTRLVGEDAPKNKDLVEWLKLHPNYTVDM gave an abundance fitness of -0.059 ± 0.072.
In the case of DPDTRIPVINLEDGTRLVGEDAPKNKDLVEWLKLHPLYTVDM, the abundance fitness is reported as -0.159 ± 0.073.
DPDTRIPVINLEDGTRLVGEDAPKNKDLVEWLKLHPRYTVDM showed an abundance fitness of -0.05 ± 0.064.
Work on DPDTRIPVINLEDGTRLVGEDAPKNKDLVEWLKLHPMYTVDM yielded an abundance fitness of -0.082 ± 0.068.
In the case of DPDTRIPVINLEDGTRLVGEDAPKNKDLVEWLKLHPTYTPDM, the abundance fitness is reported as -0.166 ± 0.08.
DPDTRIPVINLEDGTRLVGEDAPKNKDLVEWLKLHPTYTKDM showed an abundance fitness of -0.11 ± 0.054.
Variant DPDTRIPVINLEDGTRLVGEDAPKNKDLVEWLKLHPTYTFDM has an abundance fitness of -0.59 ± 0.079.
For DPDTRIPVINLEDGTRLVGEDAPKNKDLVEWLKLHPTYTGDM, the abundance fitness was -0.367 ± 0.044.
Work on DPDTRIPVINLEDGTRLVGEDAPKNKDLVEWLKLHPTYTTDM yielded an abundance fitness of -0.08 ± 0.065.
Variant DPDTRIPVINLEDGTRLVGEDAPKNKDLVEWLKLHPTYTEDM has an abundance fitness of -0.238 ± 0.067.
Work on DPDTRIPVINLEDGTRLVGEDAPKNKDLVEWLKLHPTYTSDM yielded an abundance fitness of -0.144 ± 0.051.
With DPDTRIPVINLEDGTRLVGEDAPKNKDLVEWLKLHPTYTCDM the abundance fitness was -0.152 ± 0.067.

Reference: the Human Domainome abundance scans (Beltran et al. 2025)
